Source: article PMC6353875, “The EZH2 SANT1 domain is a histone reader providing sensitivity to the modification state of the H4 tail” (Scientific Reports, 2019)

Target: EZH2 SRM-SANT1 (residues 141–251) (human) (UniProt Q15910)
Experiment: NMR titration; 15N-HSQC spectra of 0.05–0.10 mM 15N-EZH2 SRM-SANT1 with increasing concentrations of histone peptide; 25 °C; Kd from normalized CSPs, one-site model accounting for ligand depletion, averaged over significantly perturbed residues

Sequence of EZH2 SRM-SANT1 (residues 141–251) (human) (Q15910 141-251): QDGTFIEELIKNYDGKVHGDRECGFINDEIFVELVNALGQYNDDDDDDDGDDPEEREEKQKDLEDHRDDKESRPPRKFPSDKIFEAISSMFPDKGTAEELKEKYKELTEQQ

Kd: 300 µM
Substance: unmodified histone H4 peptide (residues 1–21) (from UniProt P62805 2-22)
